Read-outs that look alike come from different tables or passages of the source. Where no end group is shown, it is not given here.
B1: human Adrenomedullin (mature ADM; amidated ADM; bio-ADM), amino acids 1-52 (peptide)
peptide: YRQSMNNFQGLRSFGCRFGTCTVQKLAHQIYQFTDKDKDNVAPRSKISPQGY-NH2
modifications: ends and bridges not checked

Legend:
[1] = biological target: T1, human recombinant adrenomedullin receptor (CRLR + RAMP3) (human); test: cell-based or functional assay
[2] = biological target: T1, human recombinant adrenomedullin …; test: cell-based or functional assay; remark: listed apart in the source

T1 sequence (Q16602 whole entry, chain 1 of 2): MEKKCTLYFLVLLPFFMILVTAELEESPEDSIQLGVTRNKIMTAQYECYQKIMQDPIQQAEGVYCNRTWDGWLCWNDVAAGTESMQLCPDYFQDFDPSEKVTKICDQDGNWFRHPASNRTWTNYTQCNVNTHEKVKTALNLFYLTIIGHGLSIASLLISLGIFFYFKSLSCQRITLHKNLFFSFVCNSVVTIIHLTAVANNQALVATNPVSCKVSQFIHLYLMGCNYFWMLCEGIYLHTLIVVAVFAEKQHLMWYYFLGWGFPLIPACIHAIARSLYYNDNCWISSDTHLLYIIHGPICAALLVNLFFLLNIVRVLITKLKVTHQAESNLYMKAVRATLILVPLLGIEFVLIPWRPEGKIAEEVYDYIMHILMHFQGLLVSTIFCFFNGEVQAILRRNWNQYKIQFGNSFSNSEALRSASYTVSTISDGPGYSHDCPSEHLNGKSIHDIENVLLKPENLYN
T1 sequence (O60896 whole entry, chain 2 of 2, further chain): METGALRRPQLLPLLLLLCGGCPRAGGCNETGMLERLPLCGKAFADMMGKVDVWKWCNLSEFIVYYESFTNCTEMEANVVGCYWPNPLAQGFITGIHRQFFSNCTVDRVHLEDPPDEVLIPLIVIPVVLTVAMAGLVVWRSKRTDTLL

| Binder | EC50 (read off the curve); cAMP, % activation [1] | EC50 (read off the curve); cAMP, % activation [2] |
| --- | --- | --- |
| B1 | ~1 nM |  |
| YRQSMNQGSRSNGCRFGTCTFQKLAHQIYQLTDKDKDGMAPRNKISPQGY-NH2 (ends and bridges not checked) [Murine ADM 1-50] |  | ~0.08 nM |

From patent publication US20260167706A1 (ADRENOMED, published 2026)
